Measured values published in patent US20240316143A1, “THERAPEUTIC AGENTS AND/OR PHARMACEUTICAL COMPOSITIONS FOR NEUROCOGNITIVE DISORDERS” (priority 2023, published 2024).
Square brackets hold non-standard residues; d marks the D form. Ends that are not written are not given here. pGlu = O=C1CC[C@@H](C(=O)O)N1

Tests used:
[1] = test system: aged rats and AD model rats
Method: The arginine vasopressin (AVP) concentration and AQP4 concentration in the brain are assayed with aged rats and AD model rats. Between placebo groups and intranasal AVP spray groups, the expression amount of AQP4 is assessed and simultaneously amyloid 3 (AB) proteins (and/or tau proteins) are assayed. The assays of AQP4 and AB are carried out with an immunofluorescent-antibody assay. The measured concentration of each of AB (and/or tau) is compared (throughout all the brain and each site) at each time point, i.e., prior to administration, at one week after administration, at one month after administration, and at three months after administration.
In this assay, the comparisons are carried out between the above groups and intravascularly AVP received groups.

V1aR receptor (V1aR) = V1aR receptor (V1aR) (Homo sapiens, UniProt P37288); assay: V1aR agonist activity of AVP fragments compared with AVP; conditions: no method or data given
Sequence of V1aR receptor (V1aR) (P37288 whole entry, species assumed, the tested form may be a part): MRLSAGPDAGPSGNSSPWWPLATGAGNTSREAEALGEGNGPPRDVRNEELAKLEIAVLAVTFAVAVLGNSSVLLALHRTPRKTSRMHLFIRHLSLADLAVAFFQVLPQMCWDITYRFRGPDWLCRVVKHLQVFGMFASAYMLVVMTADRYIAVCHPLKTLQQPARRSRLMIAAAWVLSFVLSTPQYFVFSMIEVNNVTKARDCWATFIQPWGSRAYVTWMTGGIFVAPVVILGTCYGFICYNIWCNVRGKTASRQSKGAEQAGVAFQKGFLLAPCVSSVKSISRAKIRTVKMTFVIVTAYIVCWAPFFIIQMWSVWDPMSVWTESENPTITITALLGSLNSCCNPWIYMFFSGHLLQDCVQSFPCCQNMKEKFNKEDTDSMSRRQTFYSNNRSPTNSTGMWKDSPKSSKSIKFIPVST

Row | Substance | V1aR agonist activity relative to original AVP (V1aR receptor (V1aR)) | further results
1 | 8-arginine-vasopressin [AVP] |  | correlation between the concentration of AVP in the brain and the expression amount of AQP4 ([1]; aged rats and AD model rats, intranasal AVP spray vs placebo, immunofluorescent-antibody assay): There is a correlation; correlation of brain AVP concentration and AQP4 expression with the amount of AB reduction ([1]; aged rats and AD model rats, prior to, one week, one month and three months after administration): correlate with the amount of AB reduction; effectiveness of intranasal AVP administration ([1]; compared with placebo groups and intravascularly AVP received groups): effective
2 | AVP (4-8): AVP fragment (QNCPR; Arg-vasopressin; UniProt P01185 23-27, looked up, fragment) | several-fold superior to original AVP | 
3 | AVP (4-9): AVP fragment (QNCPRG; ends and bridges not checked; UniProt P01185 23-28, looked up, fragment) | several-fold superior to original AVP | 
4 | AVP (5-8): AVP fragment (NCPR; Arg-vasopressin; UniProt P01185 24-27, looked up, fragment) | several-fold superior to original AVP | 
5 | AVP (5-9): AVP fragment (NCPRG; ends and bridges not checked; UniProt P01185 24-28, looked up, fragment) | several-fold superior to original AVP | 
6 | pGlu-Asn-Ser-Pro-Arg-Gly-NH2 acetate ([pGlu]NSPRG-NH2; also: acetate salt) [NC1900, AVP fragment] | several-fold superior to original AVP | 
